Experimental findings from US20230090901A1 (GAMMADELTA THERAPEUTICS, published 2023) are described below.

Assay in all cases: DELFIA ELISA, coated antigen;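 note: binding of antibody supernatants or protein-A purified antibodies to plate-coated antigen (3 µg/ml recombinant TCR or BSA), 1 h incubation at room temperature, DELFIA readout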
A general note: An ELISA detects its analyte on a solid surface through an enzyme-linked reagent.

Assay [1] deals with T1, L1 (DV1-GV4), soluble leucine zipper γδ TCR heterodimer of a delta variable 1 chain and a gamma variable 4 … (human).
T1 construct: also called bt-L1; not shown: histidine tag/linker said to follow the zipper

The target in assay [2] is L2 (DV1-GV2), soluble leucine zipper γδ TCR heterodimer of a delta variable 1 chain and a gamma variable 2 … (human).
Method: (§1) A DELFIA ELISA binding method was also employed to assess binding of antibody supernatants or further protein-A purified antibody. In brief, MaxiSorp plates were coated with 3 μg/ml of antigen BSA or L1 (DV1-GV4), L2 (DV1-GV2), L3 (DV1-GV8), or L4 (DV2-GV4) recombinant TCR antigen. Plates were then washed with PBS, blocked with PBS/skimmed milk and then test article added and incubated for 1 hour at room temperature.
Assay [3] has as its target L3 (DV1-GV8), soluble leucine zipper γδ TCR heterodimer of a delta variable 1 chain and a gamma variable 8 … (human).
Method: as §1
A further assay addresses T2, BSA (bovine, UniProt P02769).
T2 construct: coated at 3 µg/ml; also called bovine serum albumin, control antigen of the DELFIA ELISA

T1 sequence (main, as listed by the source, chain 1 of 2): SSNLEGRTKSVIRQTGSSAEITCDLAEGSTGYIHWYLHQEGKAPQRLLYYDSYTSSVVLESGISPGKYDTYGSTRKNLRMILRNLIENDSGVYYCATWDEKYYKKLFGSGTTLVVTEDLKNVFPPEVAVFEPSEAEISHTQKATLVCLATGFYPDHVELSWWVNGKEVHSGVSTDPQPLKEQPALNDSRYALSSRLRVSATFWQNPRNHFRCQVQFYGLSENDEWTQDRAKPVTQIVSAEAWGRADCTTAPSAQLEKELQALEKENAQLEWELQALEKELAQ
T1 sequence (main, as listed by the source, chain 2 of 2): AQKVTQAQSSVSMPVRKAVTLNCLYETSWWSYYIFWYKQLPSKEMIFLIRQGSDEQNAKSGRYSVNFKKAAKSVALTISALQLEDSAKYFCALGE
T2 sequence (P02769 25-607 limits assumed): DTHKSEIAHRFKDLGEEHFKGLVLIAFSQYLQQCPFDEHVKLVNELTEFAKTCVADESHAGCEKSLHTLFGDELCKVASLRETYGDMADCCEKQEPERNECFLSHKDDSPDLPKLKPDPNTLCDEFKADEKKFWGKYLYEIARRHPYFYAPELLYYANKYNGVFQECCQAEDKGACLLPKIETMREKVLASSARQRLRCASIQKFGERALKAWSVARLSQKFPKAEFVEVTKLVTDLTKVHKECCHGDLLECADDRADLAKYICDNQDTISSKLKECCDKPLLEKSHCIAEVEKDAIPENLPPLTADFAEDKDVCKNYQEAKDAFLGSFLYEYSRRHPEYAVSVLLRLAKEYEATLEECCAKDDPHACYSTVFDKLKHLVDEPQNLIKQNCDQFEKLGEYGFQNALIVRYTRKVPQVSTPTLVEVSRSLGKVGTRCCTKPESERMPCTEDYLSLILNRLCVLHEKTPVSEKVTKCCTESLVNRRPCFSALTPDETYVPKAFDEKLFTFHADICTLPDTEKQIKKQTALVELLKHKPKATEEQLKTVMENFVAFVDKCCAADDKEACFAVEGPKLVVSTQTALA
Chain of L2 (DV1-GV2), soluble leucine zipper γδ TCR heterodimer of a delta variable 1 chain and a gamma variable 2 … (human) (chain, as listed by the source mutant, chain 1 of 2): as the sequence (main, as listed by the source, chain 1 of 2) above, with T30N, L48Q, T54N, S56K, I63V, D69Y, G72A, K76N, M80L counted along it
Chain of L2 (DV1-GV2), soluble leucine zipper γδ TCR heterodimer of a delta variable 1 chain and a gamma variable 2 … (human) (chain, as listed by the source mutant, chain 2 of 2): as the sequence (main, as listed by the source, chain 2 of 2) above
Chain of L3 (DV1-GV8), soluble leucine zipper γδ TCR heterodimer of a delta variable 1 chain and a gamma variable 8 … (human) (chain, as listed by the source mutant, chain 1 of 2): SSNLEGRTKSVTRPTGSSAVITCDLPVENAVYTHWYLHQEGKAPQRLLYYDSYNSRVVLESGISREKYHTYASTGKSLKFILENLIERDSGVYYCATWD
Chain of L3 (DV1-GV8), soluble leucine zipper γδ TCR heterodimer of a delta variable 1 chain and a gamma variable 8 … (human) (chain, as listed by the source mutant, chain 2 of 2): as the sequence (main, as listed by the source, chain 2 of 2) above
Method for BSA: as §1

B1: G4_22 (antibody, human IgG1, V domains shown)
VH: QVQLVESGGGLVQPGGSLRLSCAASGFTFSTYAMSWVRQAPGKGLEWVSTVSGSGGTTYYADSVKGRFTISRDNSKNTLYLQMNSLRAEDTAVYYCAKDSTAVTDWFDPWGRGTLVTVSS
VL: DIQMTQSPSSLSASVGDRVTITCQASQDISNYLNWYQQKPGKAPKLLIYAASSLQSGVPSRFSVSGSGTDFTLTISNLQPEDFATYYCQQSYSIPWTFGQGTKVEIKR
notes: also called clone G4_22
Consider B1, for which the “DELFIA ELISA response (FU)” value is 109000 FU in assay [1], 567 FU in assay [2], 980 FU in assay [3] and 47 FU in the assay with BSA. For the same molecule, the binding result in the assay with BSA was “no binding”.

B2: G4_13 (antibody, human IgG1, V domains shown)
VH: QVQLVESGAEVKKPGGSLRLSCAASGFTFSSYSMNWVRQAPGKGLEWVSSISGTSSYIYYADSVKGRFTISRDNAKNSLYLQMSSLRAEDTAVYYCARGGLGMVDPWGQGTLVTVSS
VL: SNFMLTQPHSVSESPGKTVTISCTRSSGSIASNYVQWYQQRPGSSPSTVIYEDNQRPSGVPDRFSGSIDSSSNSASLTISGLRTEDEADYYCQSYDSSIYVVFGGGTKLTVLG
notes: also called clone G4_13
Regarding B2, the “DELFIA ELISA response (FU)” value in assay [1] was determined as 196000 FU; in assay [2] it was 94 FU; in assay [3], 270 FU; with BSA, 78 FU. The binding result with BSA was “no binding”.

B3: G4_16 (antibody, human IgG1, V domains shown)
VH: EVQLLESGAEVKKPGASVKVSCKASGYTFTSYGISWVRQAPGQGLEWMGWISAYNGNTNYAQKLQGRVTMTTDTSTSTAYMELRSLRSDDTAVYYCARDYGDFYGMDVWGQGTLVTVSS
VL: SQSVLTQPPSASGSPGQSVTFSCTGTSSDIGAFNSVSWYQQHPGKAPKLLIYEITKRPSGVPDRFSGSKSGNTASLTISVLQAEDEADYYCTSYAGSNTLIFGGGTKVTVLG
notes: also called 1248_P02_D10; clone G4_16
B3: the “DELFIA ELISA response (FU)” value in assay [1] stood at 178000 FU; in assay [2], 84 FU; in assay [3], 118 FU; in the assay with BSA, 69 FU. In addition, the binding result with BSA was “no binding”.

B4: G4_28 (antibody, human IgG1, V domains shown)
VH: QVQLVESGGGLVQPGGSLRLSCAASGFTFDDYAMHWVRQAPGKGLEWVSGISAGGGSTNYAGSVKGRFTVSRDTSKNTLYLQMNSLRAEDTAVYYCVKSYVDTAMRYYYYYMDVWGQGTMVTVSS
VL: SSYELTQDPAVSVALGQTVTITCQGDSLRNYYASWYRQKPGQTPVLVVYGKNNRPSGIPDRFSVSASGNTASLTITGAQAEDEGDYYCNSRDSSGVVFGGGTKVTVLG
notes: also called clone G4_28
For B4, the “DELFIA ELISA response (FU)” value in assay [1] stood at 227000 FU; in assay [2], 576 FU; in assay [3], 984 FU; in the assay with BSA, 65 FU. For the same molecule, in the assay with BSA, the binding result is “no binding”.

B5: G4_14 (antibody, human IgG1, V domains shown)
VH: EVQLVQSGAEVKKPGESLRISCKGSGYSFTSYWISWVRQMPGKGLEWMGRIDPSDSYTNYSPSFPGHVTISADKSISTAYLQWSSLKASDTAMYYCAADTAHGMDVWGRGTLVTVSS
VL: SNFMLTQPHSVSESPGKTVTISCTRSRGSIAGNYVHWYQQRPGRAPTTVIYRDKERPSGVPDRISGSIDSSSNSASLTISGLKTEDEADYYCQSYDSSTHVVFGGGTKLTVLG
notes: also called clone G4_14
As for B5, the “DELFIA ELISA response (FU)” value in assay [1] is 208000 FU; in assay [2], 199 FU; in assay [3] it was 229 FU; in the assay with BSA it was 135 FU. For the same molecule, in the assay with BSA, the binding result is given as “no binding”.

B6: G4_24 (antibody, human IgG1, V domains shown)
VH: QVQLQQSGPGLVKPSQTLSLTCAISGASVSSNSVAWNWIRQSPSRGLEWLGRTYYRSRWYNDYALSVKSRIIINPDTSKNQFSLQLNSVTPEDTAVYYCARDWSSTRSFDYWGRGTLVTVSS
VL: not shown
notes: also called clone G4_24
B6: the “DELFIA ELISA response (FU)” value in assay [1] is 154000 FU; in assay [2] it was 534 FU; in assay [3], 960 FU; in the assay with BSA it was 53 FU. Further, the binding result with BSA is listed as “no binding”.

B7: G4_4 (antibody, human IgG1, V domains shown)
VH: QVQLVESGGGLVQPGGSLRLSCAASGFTFSSYAMSWVRQAPGKGLEWVSAISGSGGSTYYADSVKGRFTISRDNSKNTLYLQMSSLRVEDTAVYYCAKSSVGWWSFDYWGQGTMVTVSS
VL: not shown
notes: also called clone G4_4
In the case of B7, the “DELFIA ELISA response (FU)” value in assay [2] was found to be 90 FU; in assay [3], 190 FU.

B8: G4_19 (antibody, human IgG1, V domains shown)
VH: EVQLVQSGAEVKKPGASVKVSCKASGYTLTSYYMHWVRQAPGQGLEWMGIINPSGGSTSYAQKFQGRVTMTRDTSTSTVYMELSSLRSEDTAVYYCARERGYSYGDGMDVWGQGTTVTVSS
VL: SNFMLTQPHSVSESPGKTVTISCTRSSGSIASNYVQWYQQRPGSPPITLIYDDDQRPSGVPHRFSGSIDTSSNPASLTISGLKTEDEADYYCQSYDSSNHVVFGGGTKLTVLG
notes: also called clone G4_19
As for B8, the “DELFIA ELISA response (FU)” value in assay [1] was found to be 142000 FU; in assay [2] it was 73 FU; in assay [3] it was 192 FU; in the assay with BSA it was 55 FU. For the same molecule, the binding result with BSA is “no binding”.

B9: G4_5 (antibody, V domains shown)
VH: EVQLVQSGAEVKKPGSSVKVSCKASGYTFTSYGISWVRQAPGQGLEWMGWIGAYNGNTNYAQKLQGRVTMSTDTSTSTAYMELRSPRSDDTAVYYCARGGTGGDHVFAYWGQGTTVTVSS
VL: not shown
notes: also called clone G4_5
B9: the “DELFIA ELISA response (FU)” value in assay [1] worked out at 163000 FU. Moreover, in the assay with BSA, the “DELFIA ELISA response (FU)” value is 86 FU and the binding result is recorded as “no binding”.

B10: G4_15 (antibody, human IgG1, V domains shown)
VH: EVQLVQSEAEVKKPGASVKVSCKASGYTFTRHYMHWVRQAPGQGLEWMGLINPSGSSTVYAQKFQGRVTLTRDTSTSTDYMELSSLRSEDTAVYYCARDNSHLDQVWWFDPWGQGTLVTVSS
VL: SQSALTQPASVSGSPGQSITISCTGTSSDVGGYNYVSWYQQHPGKAPKLMIYDVSNRPSGVSNRFSGSKSGNTASLTISGLQAEDEADYYCSSYGSGSVFGTGTKLTVLG
notes: also called clone G4_15
Regarding B10, the “DELFIA ELISA response (FU)” value in assay [1] came out at 119000 FU; in assay [2], 844 FU; in assay [3], 156 FU; with BSA, 63 FU. Moreover, the binding result in the assay with BSA was “no binding”.

B11: G4_25 (antibody, human IgG1, V domains shown)
VH: EVQLVESGAEVKKPGSSVKVSCKASGGTFSSYAISWVRQAPGQGLEWMGGIIPIFGTANYAQKFQGRVTITADKSTSTAYMELSSLRSEDTAVYYCARSLRDGYNYIGSLGYWGQGTLVTVSS
VL: SQSALTQPRSVSGSPGQSVTISCTGTSSDVGGYNYVSWYQQHPGKAPKLMIYEVSNRPSGVSNRFSGSKSGNTASLTISGLQAEDEADYYCSSYGSGSVFGTGTKLTVLG
notes: also called clone G4_25
With B11, the “DELFIA ELISA response (FU)” value in assay [1] was found to be 21700 FU; in assay [2], 486 FU; in assay [3], 885 FU; in the assay with BSA it was 40 FU. In addition, the binding result with BSA is “no binding”.

B12: G4_26 (antibody, human IgG1, V domains shown)
VH: QVQLVQSGAEVKKPGSSVKVSCKASGGTFSSYAISWVRQAPGQGLEWMGGIIPIFGTANYAQKFQGRVTITADESTSTAYMELSSLRSEDTAVYYCASSRGSGWFPLGYWGQGTLVTVSS
VL: SQSGLTQPASVSGSPGQSITISCTGTSSDVGSYNLVSWYQQHPGKAPKLMIYEVSKRPSGVSNRFSGSKSGNTASLTISGLQAEDEADYYCSSFGSGSIFGTGTKLTVLG
notes: also called clone G4_26
As to B12, the “DELFIA ELISA response (FU)” value was 22800 FU in assay [1], 680 FU in assay [2], 870 FU in assay [3] and 51 FU in the assay with BSA. Also, the binding result with BSA is “no binding”.
